Reference: patent US20020026033A1 (BOARD OF REGENTS OF THE UNIVERSITY OF OKLAHOMA, published 2002)
Ends that are not written are not given here. * marks the point of attachment. sulfate = O=S(=O)(O)*

Target: T1, recombinant soluble P-selectin (sPS) (UniProt P16109 42-771, limits assumed)
T1 construct: Neither the residues nor the species are stated
T1 sequence (looked up): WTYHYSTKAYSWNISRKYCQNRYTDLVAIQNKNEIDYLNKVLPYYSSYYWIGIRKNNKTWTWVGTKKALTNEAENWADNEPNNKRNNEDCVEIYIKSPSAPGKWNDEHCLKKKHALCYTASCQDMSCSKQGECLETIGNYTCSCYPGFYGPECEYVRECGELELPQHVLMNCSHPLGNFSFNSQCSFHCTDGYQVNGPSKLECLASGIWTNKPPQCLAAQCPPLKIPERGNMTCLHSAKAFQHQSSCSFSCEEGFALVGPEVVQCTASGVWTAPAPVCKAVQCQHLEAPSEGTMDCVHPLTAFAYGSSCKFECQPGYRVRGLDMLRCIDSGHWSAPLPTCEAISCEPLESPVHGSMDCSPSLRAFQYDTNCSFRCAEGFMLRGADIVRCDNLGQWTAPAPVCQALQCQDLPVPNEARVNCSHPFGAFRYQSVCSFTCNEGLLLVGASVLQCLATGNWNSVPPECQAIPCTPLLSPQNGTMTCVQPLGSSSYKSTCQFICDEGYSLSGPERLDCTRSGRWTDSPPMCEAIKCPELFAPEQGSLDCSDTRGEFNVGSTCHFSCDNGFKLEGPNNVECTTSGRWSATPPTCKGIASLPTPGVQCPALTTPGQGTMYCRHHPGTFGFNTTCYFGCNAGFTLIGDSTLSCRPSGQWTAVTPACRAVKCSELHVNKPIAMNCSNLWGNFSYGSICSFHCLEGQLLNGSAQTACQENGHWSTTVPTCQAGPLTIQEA
Test: equilibrium gel filtration; fluid-phase sPS (25-1000 pmol) on columns equilibrated with 35SO3-GSP-6 in Ca2+-containing buffer
Experimental: Equilibrium gel filtration experiments were conducted in a Sephadex G-75 column (0.5×10 cm, 2 ml) equilibrated with 4 ml of 20 mM MOPS, pH 7.5, containing 150 mM NaCl, 2 mM CaCl₂, 2 mM MgCl₂, and 0.02% NaN₃ (buffer A), and ³⁵SO₃-GSP-6 (10,000 cpm/ml, specific activity 1700 cpm/pmol). Different amounts of soluble P-selectin (sPS) (25-1000 pmol) (Ushiyama et al., J. Biol. Chem., 268:15229-15237, 1993) were preincubated for 30-60 min in 120 μl of buffer A containing ³⁵SO₃-GSP-6 and applied to the column. Samples were eluted with buffer A (including ³⁵SO₃-GSP-6), and 140 μl fractions were collected at a flow rate of 70 μl/min. Radioactivity in the fractions was determined by liquid scintillation counting. Control experiments to test inhibitors of binding between sPS and GSP-6 were performed using 400 pmol of sPS and 5,000 cpm/ml of ³⁵SO₃-GSP-6. The EDTA concentration was 1 mM in 20 mM MOPS, pH 7.5, 150 mM NaCl, 0.02% NaN₃. Anti-P-selectin monoclonal antibodies (G1 and S12) (800 pmol each) were preincubated for 30 min with sPS in buffer A before ³⁵SO₃-GSP-6 was added. Elution was performed by using buffer A with ³⁵SO₃-GSP-6.
The dissociation constant (Kd) for binding of GSP-6 to soluble sPS was determined using an equilibrium gel filtration technique. […]

Kd: ~350 nM
B1: glycosulfopeptide-6 (GSP-6) (peptide)
peptide: GQATEY(sulfate)EY(sulfate)LDY(sulfate)DFLPETEPPEML
modifications: also: core-2 O-glycan with sialyl Lewis x on a Thr, position not given here
notes: range 42-63; Synthetic glycosulfopeptide; also called 35SO3-GSP-6; 35SO3-glycosulfopeptide-6
